Experiments:
[1] = test system: human tumor cell line derived xenograft tumors expressing Axl; experiment: BA3011 anti-tumor efficacy in xenograft mouse models; type: in vivo
Protocol: Tumor cell lines representing NSCLC (LCLC103H), prostate (DU145), and pancreatic tumor (MIAPaCa2) were tested in this in vivo mouse model system. Once tumors were established at a size of about 150 mm3, animals were treated with BA3011 at the indicated dose levels following the indicated schedule. BA3011 induced greater than 70% TGI in 4 out of 7 models tested, as shown on FIG. 17D.

[2] = BA3011 plasma exposure in monkey toxicology study; type: in vivo, cynomolgus monkey
Protocol: Based on the results at the 5 and 10 mg/kg/dose, the no-observed-adverse-effect-level (NOAEL) of BA3011 was considered to be 1 mg/kg/dose for both males and females. […] The highest non-severely toxic dose (HNSTD) was 5 mg/kg/dose, with C0 on Day 22 at 111 μg/mL and AUC0-inf at 2370 μg·h/mL.

[3] = at the dose and schedules tested

B1: Mecbotamab vedotin (conjugate, chains of the INN, looked up)
VH: EVQLVQSGAEVKKPGATVKISCKVSGYSFWGATMNWIRQPPGKGLEWIGLIKPSNGGTSYNQKFKGRVTISADKSISTAYLQWSSLKASDTAMYYCAHGHYESYEAMDYWGQGTLVTVSS
VL: DIQMTQSPSSLSASVGDRVTITCKASQDVVSAVAWYQQKPGQAPRLLIYWQDTRHTGVPSRFSGSGSGTEFTLTISSLQPDDFATYYCQEHFSPPLTFGQGTKVEIK
modifications: MC-vc-PAB-MMAE conjugate
[1]; [3]
  body weight loss: did not induce body weight loss
  clinical signs of toxicity: no other clinical signs of toxicity were noted
[1]; in 4 out of 7 models tested
  tumor growth inhibition (TGI) relative to control: greater than 70%
[2]; 1 mg/kg/dose, Day 22
  area under the concentration versus time curve (AUC)0-inf: 376 µg·h/mL
  group mean maximum plasma exposure (C0): 20.0 µg/mL
[2]; 5 mg/kg/dose (HNSTD)
  AUC0-inf: 2370 µg·h/mL
[2]; 5 mg/kg/dose (HNSTD), Day 22
  C0: 111 µg/mL
